Assay results reported in paper PMC3176292, “Mutations in Protein-Binding Hot-Spots on the Hub Protein Smad3 Differentially Affect Its Protein Interactions and Smad3-Regulated Gene Expression” (PLoS ONE, 2011).
Residue numbers refer to the chain shown, from its start.

T1: SARA Smad-binding domain (amino acids 665–721) on the 3xFlag-thioredoxin scaffold (UniProt O95405 767-823)
T1 construct: SARA, amino acids 665–721; cloned into the unique RsrII site of pCI-3xFLAG-Trx; also called SARA aa665–721; TrxSARA; source: HEK-293, transfected, in lysate
T1 sequence (looked up): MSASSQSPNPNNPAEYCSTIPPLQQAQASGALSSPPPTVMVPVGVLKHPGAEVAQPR

T2: Flag-SARA, full length (UniProt O95405 1-1425)
T2 construct: SARA; plasmid pCMV5b-Flag-SARA; also called SARA FL; source: HEK-293, transfected, in lysate
T2 sequence (looked up): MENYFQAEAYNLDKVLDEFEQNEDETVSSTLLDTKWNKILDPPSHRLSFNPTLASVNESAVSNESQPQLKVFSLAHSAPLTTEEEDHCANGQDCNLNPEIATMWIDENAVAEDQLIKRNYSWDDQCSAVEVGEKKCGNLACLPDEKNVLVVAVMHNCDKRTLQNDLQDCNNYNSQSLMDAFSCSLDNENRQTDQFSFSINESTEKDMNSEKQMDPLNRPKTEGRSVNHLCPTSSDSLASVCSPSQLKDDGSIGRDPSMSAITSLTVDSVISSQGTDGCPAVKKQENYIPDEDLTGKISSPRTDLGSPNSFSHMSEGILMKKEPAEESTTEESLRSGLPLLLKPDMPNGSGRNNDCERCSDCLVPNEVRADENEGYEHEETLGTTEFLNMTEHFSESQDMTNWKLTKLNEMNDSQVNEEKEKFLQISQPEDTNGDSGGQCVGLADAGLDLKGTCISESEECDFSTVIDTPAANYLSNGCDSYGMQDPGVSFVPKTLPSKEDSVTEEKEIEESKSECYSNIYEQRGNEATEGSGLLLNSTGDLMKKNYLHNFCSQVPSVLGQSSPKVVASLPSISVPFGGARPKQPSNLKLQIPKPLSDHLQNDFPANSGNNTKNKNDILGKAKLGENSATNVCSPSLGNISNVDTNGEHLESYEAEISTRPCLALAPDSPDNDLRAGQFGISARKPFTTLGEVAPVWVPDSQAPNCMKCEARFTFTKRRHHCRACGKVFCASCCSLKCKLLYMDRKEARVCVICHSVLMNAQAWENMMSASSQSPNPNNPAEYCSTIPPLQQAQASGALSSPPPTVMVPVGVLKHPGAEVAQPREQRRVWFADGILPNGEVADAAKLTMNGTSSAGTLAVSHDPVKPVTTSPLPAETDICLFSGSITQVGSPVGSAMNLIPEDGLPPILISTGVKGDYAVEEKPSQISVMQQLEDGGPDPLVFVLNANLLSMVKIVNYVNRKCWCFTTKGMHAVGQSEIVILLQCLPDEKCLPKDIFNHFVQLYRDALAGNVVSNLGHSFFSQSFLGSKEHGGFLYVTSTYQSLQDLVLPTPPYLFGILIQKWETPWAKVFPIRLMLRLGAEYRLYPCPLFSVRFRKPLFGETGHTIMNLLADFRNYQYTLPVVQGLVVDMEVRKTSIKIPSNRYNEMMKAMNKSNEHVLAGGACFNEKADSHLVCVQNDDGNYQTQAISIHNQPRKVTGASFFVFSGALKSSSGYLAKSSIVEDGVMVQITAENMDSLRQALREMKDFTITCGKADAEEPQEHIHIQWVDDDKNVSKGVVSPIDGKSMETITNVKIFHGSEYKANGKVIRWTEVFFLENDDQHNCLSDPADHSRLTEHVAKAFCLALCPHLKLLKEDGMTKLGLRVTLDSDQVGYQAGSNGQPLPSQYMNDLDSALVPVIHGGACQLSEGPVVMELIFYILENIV

T3: Ski Smad-binding domain (amino acids 2–56) on the 3xFlag-thioredoxin scaffold (UniProt P12755 2-56)
T3 construct: Ski, amino acids 2–56; cloned into the unique RsrII site of pCI-3xFLAG-Trx; also called Ski aa2–56; TrxSki; source: HEK-293, transfected, in lysate
T3 sequence (looked up): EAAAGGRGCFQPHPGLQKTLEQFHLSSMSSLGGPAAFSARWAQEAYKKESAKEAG

B1: Renilla luciferase-Smad3 D408H (natural protein, UniProt P84022 1-425, looked up)
chain: MSSILPFTPPIVKRLLGWKKGEQNGQEEKWCEKAVKSLVKKLKKTGQLDELEKAITTQNVNTKCITIPRSLDGRLQVSHRKGLPHVIYCRLWRWPDLHSHHELRAMELCEFAFNMKKDEVCVNPYHYQRVETPVLPPVLVPRHTEIPAEFPPLDDYSHSIPENTNFPAGIEPQSNIPETPPPGYLSEDGETSDHQMNHSMDAGSPNLSPNPMSPAHNNLDLQPVTYCEPAFWCSISYYELNQRVGETFHASQPSMTVDGFTDPSNSERFCLGLLSNVNRNAAVELTRRHIGRGVRLYYIGGEVFAECLSDSAIFVQSPNCNQRYGWHPATVCKIPPGCNLKIFNNQEFAALLAQSVNQGFEAVYQLTRMCTIRMSFVKGWGAEYRRQTVTSTPCWIELHLNGPLQWLHKVLTQMGSPSIRCSSVS
notes: Smad3; source: HEK-293, transfected together with constitutively active Alk5, in lysate
B2: Renilla luciferase-Smad3 Y238A (natural protein, UniProt P84022 1-425, looked up)
chain: B1 chain with Y238A, H408D
notes: as for B1
B3: Renilla luciferase-Smad3 Y384A (natural protein, UniProt P84022 1-425, looked up)
chain: B1 chain with Y384A, H408D
notes: as for B1
B4: Renilla luciferase-Smad3 R243A (natural protein, UniProt P84022 1-425, looked up)
chain: B1 chain with R243A, H408D
notes: as for B1
B5: Renilla luciferase-Smad3 R292A (natural protein, UniProt P84022 1-425, looked up)
chain: B1 chain with R292A, H408D
notes: as for B1
B6: Renilla luciferase-Smad3 R268A (natural protein, UniProt P84022 1-425, looked up)
chain: B1 chain with R268A, H408D
notes: as for B1

molecular target: T4, Flag-Smad3, full length (UniProt P84022 1-425); test: co-IP; LUMIER: Renilla luciferase-Smad3 and Flag-tagged partner co-expressed with constitutively active Alk5 in HEK-293; Flag protein captured from cleared lysate (TNE: 10 mM Tris-HCl pH 7.8, 150 mM NaCl, 1 mM EDTA, 1% Igepal CA-630) on anti-Flag 96-well plates, 2 h at 4 °C; co-precipitated Renilla luciferase activity, TrxGA background subtracted, percent of wild-type Smad3; details: partners not purified
T4 construct: Smad3; plasmid pCMV5-Flag-Smad3 (from J. Massagué); bait for Smad3-Smad3 association; also called Smad3 FL; source: HEK-293, transfected together with constitutively active Alk5, in lysate

Row | Binder | percent binding relative to wild-type Smad3 [%]
1 | B1 | 30
2 | B2 | 24
3 | B3 | 28
4 | B4 | 46
5 | B5 | 49
6 | B6 | 27

molecular target: T1, SARA Smad-binding domain (amino acids …); test: as above; details: partners not purified

Row | Binder | percent binding relative to wild-type Smad3 [%]
7 | B2 | 74
8 | B3 | 119
9 | B4 | 72
10 | B5 | 78
11 | B6 | 116

molecular target: T2, Flag-SARA, full length; test: as above; details: partners not purified

Row | Binder | percent binding relative to wild-type Smad3 [%]
12 | B1 | 168
13 | B2 | 162
14 | B3 | 178
15 | B4 | 181
16 | B5 | 120
17 | B6 | 159

molecular target: T5, Smurf2 Smad-binding domain (amino acids 252–330) on the Flag-thioredoxin scaffold (UniProt Q9HAU4 252-330); test: as above; details: partners not purified
T5 construct: Smurf2, amino acids 252–330; also called Smurf2 aa252–330; TrxSmurf2; source: HEK-293, transfected, in lysate
T5 sequence (Q9HAU4 252-330): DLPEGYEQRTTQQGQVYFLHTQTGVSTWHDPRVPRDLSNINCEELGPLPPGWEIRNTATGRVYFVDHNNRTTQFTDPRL

Row | Binder | percent binding relative to wild-type Smad3 [%]
18 | B2 | 28
19 | B3 | 24
20 | B4 | 19
21 | B5 | 31
22 | B6 | 21

molecular target: T3, Ski Smad-binding domain (amino acids …); test: as above; details: partners not purified

Row | Binder | percent binding relative to wild-type Smad3 [%]
23 | B2 | 2
24 | B3 | 3
25 | B4 | 3
26 | B5 | 4
27 | B6 | 2
